According to article PMC7617670, “Activity Regulation of a Glutamine Amidotransferase Bienzyme Complex by Substrate-Induced Subunit Interface Expansion” (ACS catalysis, 2025):

Experiments:
Assay in all cases: ITC; 250 μM PabB titrated into 25 μM PabA in the cell; 25 °C; 50 mM Tris/HCl pH 7.5, 50 mM KCl, 5 mM MgCl2; without Cho and Gln; one set of sites
Conditions in all cases: both partners purified
PabB variant bE119R = target: T1, PabB variant bE119R (Escherichia coli, UniProt P05041 1-453, bE119R)
T1 construct: PabB, synthase subunit of ADCS, E. coli; construct as m2 with one exchange; Made by QuikChange mutagenesis from the construct of m2; source: E. coli BL21-Gold (DE3), purified (Ni-IMAC, preparative gel filtration)
T1 sequence: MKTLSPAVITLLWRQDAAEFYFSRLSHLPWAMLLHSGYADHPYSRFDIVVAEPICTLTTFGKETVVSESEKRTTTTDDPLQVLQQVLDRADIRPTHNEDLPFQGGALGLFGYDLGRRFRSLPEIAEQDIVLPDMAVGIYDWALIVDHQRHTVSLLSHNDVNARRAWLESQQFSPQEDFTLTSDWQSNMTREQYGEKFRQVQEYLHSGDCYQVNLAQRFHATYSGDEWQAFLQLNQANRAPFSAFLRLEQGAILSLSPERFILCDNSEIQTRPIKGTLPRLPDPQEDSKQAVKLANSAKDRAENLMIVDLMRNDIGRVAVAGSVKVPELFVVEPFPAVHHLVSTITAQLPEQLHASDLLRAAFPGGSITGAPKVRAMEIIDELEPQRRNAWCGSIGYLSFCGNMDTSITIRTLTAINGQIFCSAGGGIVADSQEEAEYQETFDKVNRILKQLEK

[1] = target: T2, PabB, synthase subunit of aminodeoxychorismate synthase (ADCS) from Escherichia coli, wild type (Escherichia coli, UniProt P05041 1-453)
T2 construct: PabB, synthase subunit of ADCS, E. coli; the gene was cloned into pET28a; Form used for SEC, ITC and kinetics; TEV cleavage is told only of the proteins used for crystallization; also called wt PabB; ADCS synthase subunit; source: E. coli BL21-Gold (DE3), purified (Ni-IMAC, preparative gel filtration)
T2 sequence: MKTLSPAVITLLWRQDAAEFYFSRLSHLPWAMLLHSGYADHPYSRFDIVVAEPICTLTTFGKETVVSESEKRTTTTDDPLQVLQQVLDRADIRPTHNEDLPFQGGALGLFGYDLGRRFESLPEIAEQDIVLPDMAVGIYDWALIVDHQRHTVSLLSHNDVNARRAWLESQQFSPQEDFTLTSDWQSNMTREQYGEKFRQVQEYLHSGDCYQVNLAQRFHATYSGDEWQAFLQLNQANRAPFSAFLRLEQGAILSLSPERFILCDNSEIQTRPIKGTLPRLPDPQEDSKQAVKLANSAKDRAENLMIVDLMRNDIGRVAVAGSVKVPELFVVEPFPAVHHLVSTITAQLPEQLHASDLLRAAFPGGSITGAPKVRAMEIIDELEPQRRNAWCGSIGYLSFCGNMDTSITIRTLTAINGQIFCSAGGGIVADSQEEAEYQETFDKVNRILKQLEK

PabB variant bY210A = target: T3, PabB variant bY210A (Escherichia coli, UniProt P05041 1-453, bY210A)
T3 construct: PabB, synthase subunit of ADCS, E. coli; construct as m2 with one exchange; Made by QuikChange mutagenesis from the construct of m2; source: E. coli BL21-Gold (DE3), purified (Ni-IMAC, preparative gel filtration)
T3 sequence: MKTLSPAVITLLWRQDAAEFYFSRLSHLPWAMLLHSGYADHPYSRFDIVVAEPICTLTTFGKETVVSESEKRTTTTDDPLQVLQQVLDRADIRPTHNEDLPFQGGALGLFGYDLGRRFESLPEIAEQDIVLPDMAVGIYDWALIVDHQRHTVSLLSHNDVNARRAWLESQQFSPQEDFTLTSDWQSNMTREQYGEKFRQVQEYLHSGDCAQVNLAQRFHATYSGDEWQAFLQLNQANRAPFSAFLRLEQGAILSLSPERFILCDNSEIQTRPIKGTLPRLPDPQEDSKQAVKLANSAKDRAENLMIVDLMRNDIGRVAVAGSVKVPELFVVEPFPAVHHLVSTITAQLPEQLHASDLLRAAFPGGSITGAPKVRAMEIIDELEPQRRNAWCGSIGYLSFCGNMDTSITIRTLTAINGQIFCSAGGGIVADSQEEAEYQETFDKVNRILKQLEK

PabB variant bE119D = target: T4, PabB variant bE119D (Escherichia coli, UniProt P05041 1-453, bE119D)
T4 construct: PabB, synthase subunit of ADCS, E. coli; construct as m2 with one exchange; Made by QuikChange mutagenesis from the construct of m2; source: E. coli BL21-Gold (DE3), purified (Ni-IMAC, preparative gel filtration)
T4 sequence: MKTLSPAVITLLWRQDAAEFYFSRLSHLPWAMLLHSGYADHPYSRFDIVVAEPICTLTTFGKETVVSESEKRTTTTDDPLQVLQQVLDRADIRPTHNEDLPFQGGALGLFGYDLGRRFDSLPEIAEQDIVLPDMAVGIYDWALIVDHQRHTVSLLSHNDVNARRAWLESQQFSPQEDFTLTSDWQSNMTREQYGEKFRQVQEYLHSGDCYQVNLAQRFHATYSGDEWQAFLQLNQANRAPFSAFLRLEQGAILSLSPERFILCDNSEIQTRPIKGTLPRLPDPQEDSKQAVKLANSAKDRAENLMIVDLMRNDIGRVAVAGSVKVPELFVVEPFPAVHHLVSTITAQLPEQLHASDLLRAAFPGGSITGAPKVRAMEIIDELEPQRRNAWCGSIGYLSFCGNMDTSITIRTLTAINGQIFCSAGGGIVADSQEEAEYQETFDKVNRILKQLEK

Kd (PabB variant bE119R): 540 nM
Kd [1]: 160 nM
Kd (PabB variant bY210A): 5500 nM
Kd (PabB variant bE119D): 840 nM
B1: PabA, glutaminase subunit of aminodeoxychorismate synthase (ADCS) from Escherichia coli, wild type (enzyme)
chain: MILLIDNYDSFTWNLYQYFCELGADVLVKRNDALTLADIDALKPQKIVISPGPCTPDEAGISLDVIRHYAGRLPILGVCLGHQAMAQAFGGKVVRAAKVMHGKTSPITHNGEGVFRGLANPLTVTRYHSLVVEPDSLPACFDVTAWSETREIMGIRHRQWDLEGVQFHPESILSEQGHQLLANFLHR
notes: PabA, class I glutaminase subunit of ADCS, E. coli; the gene was cloned into pET28a; Form used for SEC, ITC and kinetics; TEV cleavage is told only of the proteins used for crystallization; The G5H-Tag stands between the TEV site and the start methionine of PabA; also called wt PabA; ADCS glutaminase subunit; source: E. coli BL21-Gold (DE3), purified (Ni-IMAC, preparative gel filtration)
